Data taken from the supplement of paper PMC5949888.

Tested on: Saccharomyces cerevisiae PS128 hsf1 delta, HSF1(1-493) fusion
Assay: growth estimate (transactivation domain function in HSF1 fusion, heat-shock survival) (a.u. (slope of normalised read count over time)); higher = stronger growth at 37°C, i.e. more transactivation activity
Conditions: library: design library
Outline: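 The growth estimate is the slope, from a robust linear fit over time, of read counts scaled to sample totals and starting count. These counts came from Illumina MiSeq sequencing of PCR-amplified inserts, run as six barcoded replicates of one experiment. The inserts encoded designed transactivation-domain oligos fused to yeast HSF1 (amino acids 1–493) in an hsf1-deleted strain, replica-plated on –trp 5-FOA plates and incubated at 30°C or 37°C for 0, 2, 4, 6 and 8 days.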

Sequence	growth estimate
AADDIWEELLSEDL	2.1
ADDDEFSLWDSML	1.96
ADLYSILWSDVY	-0.203
AELSWIIELLEKDG	-0.248
AFDLDMLGDFDLDMLG	1.88
AFDYDFLFGNDFA	10.5
AFNDLLDLDFILSN	0.948
AFPDTQDDFLKWWRSEEAQ	-0.0486
ALDESWDYIFETTE	0.813
ALSSHGFSVDTSALLDLFSP	0.065
AMDDVYNYLFDD	2.28
AQNGEIAQLWDFN	-0.205
DADESWDYIFETTE	-0.164
DADLDMLGDFDLDMLG	0.604
DALSWIIELLEKDG	< -0.25
DEASWIIELLEKDG	-0.123
DELAWIIELLEKDG	0.883
DELGWIIELLEKDG	-0.244
DELKWIIELLEKDG	-0.0445
DELPWIIELLEKDG	-0.193
DELRWIIELLEKDG	0.0232
DELSAIIELLEKDG	< -0.25
DELSGIIELLEKDG	-0.238
DELSKIIELLEKDG	< -0.25
DELSPIIELLEKDG	-0.237
DELSRIIELLEKDG	< -0.25

Sequence	growth estimate
DELSWAIELLEKDG	< -0.25
DELSWGIELLEKDG	< -0.25
DELSWIAELLEKDG	0.851
DELSWIGELLEKDG	-0.125
DELSWIIALLEKDG	-0.104
DELSWIIEALEKDG	0.0037
DELSWIIEGLEKDG	< -0.25
DELSWIIEKLEKDG	< -0.25
DELSWIIELLAKDG	-0.221
DELSWIIELLEADG	1.64
DELSWIIELLEGDG	2.77
DELSWIIELLEKAG	< -0.25
DELSWIIELLEKDA	2.02
DELSWIIELLEKDG	1.7
DELSWIIELLEKDK	0.564
DELSWIIELLEKDP	3.41
DELSWIIELLEKDR	0.276
DELSWIIELLEKGG	0.213
DELSWIIELLEKKG	< -0.25
DELSWIIELLEKPG	0.0373
DELSWIIELLEKRG	< -0.25
DELSWIIELLEPDG	7.58
DELSWIIELLERDG	1.05
DELSWIIELLGKDG	-0.173
DELSWIIELLKKDG	-0.239
DELSWIIELLPKDG	-0.225

Sequence	growth estimate
DELSWIIELLRKDG	< -0.25
DELSWIIELPEKDG	-0.237
DELSWIIELREKDG	-0.239
DELSWIIERLEKDG	< -0.25
DELSWIIGLLEKDG	-0.0196
DELSWIIKLLEKDG	-0.233
DELSWIIRLLEKDG	< -0.25
DELSWIKELLEKDG	0.278
DELSWIPELLEKDG	-0.091
DELSWIRELLEKDG	1.03
DELSWKIELLEKDG	< -0.25
DELSWPIELLEKDG	0.046
DELSWRIELLEKDG	-0.216
DEPSWIIELLEKDG	-0.161
DERSWIIELLEKDG	< -0.25
DFALDMLGDFDLDMLG	3.21
DFDADMLGDFDLDMLG	6.93
DFDGDMLGDFDLDMLG	1.92
DFDKDMLGDFDLDMLG	0.964
DFDLAMLGDFDLDMLG	9.96
DFDLDALGDFDLDMLG	5.01
DFDLDGLGDFDLDMLG	2.75
DFDLDKLGDFDLDMLG	1.4
DFDLDMAGDFDLDMLG	11.3
DFDLDMGGDFDLDMLG	8.13
DFDLDMKGDFDLDMLG	0.067

Sequence	growth estimate
DFDLDMLADFDLDMLG	0.343
DFDLDMLGAFDLDMLG	5.97
DFDLDMLGDADLDMLG	5.13
DFDLDMLGDFDADMLG	21.1
DFDLDMLGDFDGDMLG	4.69
DFDLDMLGDFDKDMLG	0.54
DFDLDMLGDFDLAMLG	-0.0527
DFDLDMLGDFDLDALG	0.195
DFDLDMLGDFDLDGLG	2.79
DFDLDMLGDFDLDKLG	-0.158
DFDLDMLGDFDLDMAG	30.2
DFDLDMLGDFDLDMGG	16.5
DFDLDMLGDFDLDMKG	3.28
DFDLDMLGDFDLDMLA	1.83
DFDLDMLGDFDLDMLG	7.72
DFDLDMLGDFDLDMLK	1.65
DFDLDMLGDFDLDMLP	22.2
DFDLDMLGDFDLDMLR	6.97
DFDLDMLGDFDLDMPG	17.2
DFDLDMLGDFDLDMRG	6.95
DFDLDMLGDFDLDPLG	9.65
DFDLDMLGDFDLDRLG	0.414
DFDLDMLGDFDLGMLG	0.517
DFDLDMLGDFDLKMLG	-0.116
DFDLDMLGDFDLPMLG	1.24
DFDLDMLGDFDLRMLG	0.112

Sequence	growth estimate
DFDLDMLGDFDPDMLG	10.6
DFDLDMLGDFDRDMLG	0.584
DFDLDMLGDFKLDMLG	0.503
DFDLDMLGDFPLDMLG	1.65
DFDLDMLGDFRLDMLG	0.535
DFDLDMLGDGDLDMLG	-0.147
DFDLDMLGDKDLDMLG	-0.188
DFDLDMLGDPDLDMLG	10.1
DFDLDMLGGFDLDMLG	2.09
DFDLDMLGKFDLDMLG	1.77
DFDLDMLGRFDLDMLG	1.8
DFDLDMLKDFDLDMLG	2.58
DFDLDMLPDFDLDMLG	0.485
DFDLDMLRDFDLDMLG	11.1
DFDLDMPGDFDLDMLG	6.81
DFDLDMRGDFDLDMLG	1.6
DFDLDPLGDFDLDMLG	2.12
DFDLDRLGDFDLDMLG	4.07
DFDLGMLGDFDLDMLG	12.4
DFDLKMLGDFDLDMLG	3.04
DFDLPMLGDFDLDMLG	5.28
DFDLRMLGDFDLDMLG	6.25
DFDPDMLGDFDLDMLG	7.23
DFDRDMLGDFDLDMLG	1.31
DFGLDMLGDFDLDMLG	2.44
DFKLDMLGDFDLDMLG	5.13

Sequence	growth estimate
DFPLDMLGDFDLDMLG	3.12
DFRLDMLGDFDLDMLG	10.1
DGDESWDYIFETTE	-0.219
DGDLDMLGDFDLDMLG	0.418
DGLSWIIELLEKDG	-0.173
DKDESWDYIFETTE	-0.235
DKDLDMLGDFDLDMLG	-0.127
DKLSWIIELLEKDG	< -0.25
DLAESWDYIFETTE	0.371
DLDASWDYIFETTE	0.507
DLDEAWDYIFETTE	1.45
DLDEGWDYIFETTE	0.787
DLDEKWDYIFETTE	< -0.25
DLDEPWDYIFETTE	1.58
DLDESADYIFETTE	-0.127
DLDESGDYIFETTE	-0.129
DLDESRDYIFETTE	-0.153
DLDESWAYIFETTE	0.283
DLDESWDAIFETTE	< -0.25
DLDESWDGIFETTE	0.5
DLDESWDKIFETTE	-0.06
DLDESWDRIFETTE	< -0.25
